One block for each binder: values may come before it.
What was measured:
[1] = target: HLA-A24:02 class I MHC molecule (human); experiment: pMHC-I dissociation at 37 C, 125I-labeled b2m, scintillation counts
Protocol: (§1) Briefly, synthetic genes encoding biotinylated MHC-I heavy and light chains are expressed in E. coli and purified from inclusion bodies using standard methods. […] These reactions are carried out in streptavidin coated microplates to bind the biotinylated MHC-I heavy chains to the surface and allow measurement of radiolabeled light chain to monitor complex formation. Dissociation is initiated by addition of higher concentrations of unlabeled light-chain and incubation at 37° C. Stability is defined as the length of time in hours it takes for half of the complexes to dissociate, as measured by scintillation counts.

[2] = target: HLA-A24:02 class I MHC molecule (human); experiment: competition with a radiolabeled reference peptide for purified MHC I, gel filtration; 'Affinity (nM)'
Protocol: (§2) Peptides were incubated at varying concentrations with these complexes for 2 days, and the amount of remaining radiolabeled peptide bound to […] was measured using size exclusion gel-filtration.

[3] = target: HLA-A03:01 class I MHC molecule (human); experiment: pMHC-I dissociation at 37 C, 125I-labeled b2m, scintillation counts
Protocol: as §1

[4] = target: T1, HLA-A01:01 class I MHC molecule (human); experiment: as above
T1 construct: heavy chain biotinylated and made in E. coli in the stability assay
Protocol: as §1

[5] = target: HLA-A03:01 class I MHC molecule (human); experiment: competition with a radiolabeled reference peptide for purified MHC I, gel filtration; 'Affinity (nM)'
Protocol: as §2

[6] = target: T1, HLA-A01:01 class I MHC molecule; experiment: as above
Protocol: as §2

[7] = target: HLA-A11:01 class I MHC molecule (human); experiment: competition with a radiolabeled reference peptide for purified MHC I, gel filtration; 'Affinity (nM)'; affinity assay, column 'Affinity (nM)'
Protocol: as §2

[8] = target: T2, HLA class I molecule A03.01; experiment: pMHC-I dissociation half-life, 125I-b2m
T2 construct: Purified MHC class I complex; also called HLA-A03:01
Summary of the method: (§3)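 Biotinylated MHC-I heavy chain made in E. coli, captured on streptavidin plates and complexed with peptide and radiolabelled light chain. Dissociation started with excess unlabelled light chain at 37 °C. Stability is the half-life in hours from scintillation counts.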

[9] = target: T2, HLA class I molecule A03.01; experiment: competition with radiolabeled reference peptide on purified MHC I
Protocol: as §2

HLA-A02.01 [10] = target: T3, HLA-A02.01 (human); experiment: pMHC-I dissociation half-life, 125I-b2m
T3 construct: Purified class I MHC
Summary of the method: as §3

HLA-A24.02 [11] = target: T4, HLA-A24.02 (human); experiment: pMHC-I dissociation half-life, 125I-b2m
T4 construct: Purified class I MHC
Summary of the method: as §3

HLA-A02.01 [12] = target: T3, HLA-A02.01; experiment: competition with radiolabeled reference peptide, purified MHC I
Protocol: as §2

HLA-A24.02 [13] = target: T4, HLA-A24.02; experiment: as above
Protocol: as §2

HLA-A03.01 [14] = target: T5, HLA-A03.01 (human); experiment: pMHC-I dissociation half-life, 125I-b2m
T5 construct: Purified class I MHC
Summary of the method: as §3

HLA-B07.02 [15] = target: T6, HLA-B07.02 (human); experiment: pMHC-I dissociation half-life, 125I-b2m
T6 construct: Purified class I MHC
Summary of the method: as §3

HLA-B08.01 [16] = target: T7, HLA-B08.01 (human); experiment: pMHC-I dissociation half-life, 125I-b2m
T7 construct: Purified class I MHC
Summary of the method: as §3

HLA-A03.01 [17] = target: T5, HLA-A03.01; experiment: competition with radiolabeled reference peptide, purified MHC I
Protocol: as §2

HLA-B07.02 [18] = target: T6, HLA-B07.02; experiment: as above
Protocol: as §2

HLA-B08.01 [19] = target: T7, HLA-B08.01; experiment: as above
Protocol: as §2

[20] = target: T8, HLA-A02.01 class I MHC molecule (prepared complex) (human); experiment: dissociation of peptide-MHC-I complex at 37 C, 125I-labelled b2m, scintillation
Protocol: as §1

[21] = target: T8, HLA-A02.01 class I MHC molecule …; experiment: displacement of radiolabeled reference peptide from class I MHC, gel filtration; 'Affinity (nM)'
Protocol: as §2

[22] = target: HLA-B08:01 class I MHC molecule (human); experiment: pMHC-I dissociation at 37 C, 125I-labeled b2m, scintillation counts
Protocol: as §1

[23] = target: HLA-B08:01 class I MHC molecule (human); experiment: competition with a radiolabeled reference peptide for purified MHC I, gel filtration; 'Affinity (nM)'
Protocol: as §2

[24] = target: T9, HLA class I molecule B08.01; experiment: pMHC-I dissociation half-life, 125I-b2m
T9 construct: Purified MHC class I complex; also called HLA-B08:01
Summary of the method: as §3

[25] = target: T10, HLA class I molecule A02.01; experiment: pMHC-I dissociation half-life, 125I-b2m
T10 construct: Purified MHC class I complex; also called HLA-A02:01
Summary of the method: as §3

[26] = target: T9, HLA class I molecule B08.01; experiment: competition with radiolabeled reference peptide on purified MHC I
Protocol: as §2

[27] = target: T10, HLA class I molecule A02.01; experiment: as above
Protocol: as §2

Stability (half-life (hr.)) [1]: 343 min
IC50 [2]: 4.96 nM
Binder: EYMANGSLL [BTK, C481S peptide EYMANGSLL]

Stability (half-life (hr.)) [3]: 16.7 min
Stability (half-life (hr.)) [4]: 52 min
IC50 [5]: 95.9 nM
IC50 [6]: 13.2 nM
IC50 [7]: 974 nM
Binder: YMANGSLLNY [BTK, C481S peptide YMANGSLLNY]

Stability (T1/2 (h)) [8]: 13.5 h
IC50 [9]: 7 nM
Binder: KVSRENTSPK (also called HER2, L7555)

Stability (T1/2 (h)) (HLA-A02.01 [10]): 0.4 h
Stability (T1/2 (h)) (HLA-A24.02 [11]): 0 h
IC50 (HLA-A02.01 [12]): 1030 nM
IC50 (HLA-A24.02 [13]): 44900 nM
Binder: MNWRPILTII (also called TP53, R248W)

Stability (T1/2 (h)) (HLA-A03.01 [14]): 0 h
Stability (T1/2 (h)) (HLA-A02.01 [10]): 16.9 h
Stability (T1/2 (h)) (HLA-B07.02 [15]): 1.5 h
Stability (T1/2 (h)) (HLA-B08.01 [16]): 0 h
IC50 (HLA-A03.01 [17]): 210 nM
IC50 (HLA-B07.02 [18]): 133 nM
IC50 (HLA-B08.01 [19]): 58.4 nM
Binder: KLMLLRLNL (also called SEC31A(-1))

Stability (half-life (hr.)) [20]: 22.9 min
IC50 [21]: 132 nM
B1: EGFR_T790M peptide LIMQLMPFGC (peptide)
peptide: LIMQLMPFGC
notes: synthetic peptide holding the EGFR T790M mutation

Stability (half-life (hr.)) [22]: 0 h
IC50 [23]: 960 nM
Binder: SLLNYLREM [BTK_C481S peptide SLLNYLREM]

Stability (T1/2 (h)) [24]: 0 h
Stability (T1/2 (h)) [25]: 0.4 h
IC50 [26]: 18900 nM
IC50 [27]: 799 nM
Binder: YQQQQQSDL (also called MYC, E39D)

From US20220282217A1 (BIONTECH US, published 2022)
